Data reported in patent US12391919B2, “Culture medium, coating matrix and method for maturing midbrain dopaminergic progenitor cells” (NUWACELL BIOTECHNOLOGIES CO., LTD., priority 2022, dated 2025).

System: imDAPs
Test: imDAP maturation: cell morphology, adhesion and cell yield
Format: cell-based, human
Conditions: Example 13; maturation media supplemented with 10 μM Y27632; day 7; FIG. 8A
Description: imDAPs were produced according to the method described in CN201910169525.0, and expanded as described in Example 10. […] MM-H used in Example 11 contained the following components: Neurobasal™ medium, 1% (v/v) Glutamax, 0.5 mM Db-cAMP sodium salt, 200 μM ascorbic acid, 20 ng/ml BDNF, 20 ng/ml GDNF, 1 ng/ml TGF-β3, 10 μM DAPT, HhPLT (0.5%, 1%, 2%). MM-B used in Example 11 contained the following components: Neurobasal, 1% (v/v) Glutamax, 0.5 mM Db-cAMP sodium salt, 200 μM ascorbic acid, 20 ng/ml BDNF, 20 ng/ml GDNF, 1 ng/ml TGF-β3, 10 μM DAPT, 2% (v/v) B27 (50×) (as control). The above HhPLT was produced from hPLT as follows. The hPLT was centrifuged at 3000 g for 30 min at 4° C. to obtain the supernatant, which was heated to 56° C. for 30 min. The suspension was finally cooled down to 4° C. at least 5 min, and spun at 3000 g for 30 min at 4° C. to obtain the HhPLT supernatant. Aliquots were prepared and stored at −80° C. until use. The above Medium was changed every 3rd day. On day 7, the imDAPs at early maturation stage were dissociated enzymatically with 1× TrypLE, centrifuged at 250 g for 5 minutes.
imDAPs were produced according to the method described in CN201910169525.0, and expanded as described in Example 10. […] Medium was changed every 3rd day. On day 7, the imDAPs at early maturation stage were dissociated enzymatically with 1× TrypLE, centrifuged at 250 g for 5 minutes. Cells were collected for RT-qPCR analysis of EN1, LMX1A, FOXA2, NURR1, SOX6 and TH gene expression. The maturation medium used in Example 12 contained the following components: Neurobasal™ medium, 1% (v/v) Glutamax, 1% (v/v) HhPLT, 0.5 mM Db-cAMP sodium salt, 200 μM ascorbic acid, 20 ng/mL BDNF, 20 ng/mL GDNF, 1 ng/mL TGF-β3, 10 μM DAPT.
imDAPs were produced according to the method described in CN201910169525.0, and expanded as described in Example 10. […] Cells were collected and counted by Vi-cell cytometer. The cells were analyzed by RT-qPCR for EN1, LMX1A, FOXA2, NURR1, SOX6 and TH gene expression. […]

B1: VTN: vitronectin, first coating matrix that supports cell adhesion (protein, UniProt P04004 20-478, looked up)
Vitronectin: DQESCKGRCTEGFNVDKKCQCDELCSYYQSCCTDYTAECKPQVTRGDVFTMPEDEYTVYDDGEEKNNATVHEQVGGPSLTSDLQAQSKGNPEQTPVLKPEEEAPAPEVGASKPEGIDSRPETLHPGRPQPPAEEELCSGKPFDAFTDLKNGSLFAFRGQYCYELDEKAVRPGYPKLIRDVWGIEGPIDAAFTRINCQGKTYLFKGSQYWRFEDGVLDPDYPRNISDGFDGIPDNVDAALALPAHSYSGRERVYFFKGKQYWEYQFQHQPSQEECEGSSLSAVFEHFAMMQRDSWEDIFELLFWGRTSAGTRQPQFISRDWHGVPGQVDAAMAGRIYISGMAPRPSLAKKQRFRHRNRKGYRSQRGHSRGRNQNSRRPSRATWLSLFSSEESNLGANNYDDYRMDWLVPATCEPIQSVFFFSGDKYYRVNLRTRRVDTVDPPYPRSIAQYWLGCPAPGHL
B1 was tested, and the “cell adhesion and growth” value was “could grow normally”.
